Tests used:
[1] = target: Latent TGFβ Binding Protein-1, short form (LTBP1S), full length; assay: negative stain EM; LTBP1 oligomers imaged by negative stain EM; lengths measured with ImageJ (n = 100 from 32 images)
[2] = target: Latent TGFβ Binding Protein-1, short form (LTBP1S), full length; assay: SEC-MALS; Superdex 200 or Superose 6; 0.5 ml at ~0.5 mg/ml; 10 mM Tris, 150 mM NaCl, 2 mM CaCl2, pH 7.4; self-association; NT2 monomer also stored overnight at 4 °C in 2 mM calcium and the dimer fraction rerun
[3] = target: the molecule itself; assay: as above
[4] = target: the molecule itself; assay: AUC; ~0.5 mg/ml; 10 mM Tris, 150 mM NaCl, 2 mM CaCl2, pH 7.4; self-association; NT1 also after 12 h pre-incubation with ~10x molar excess of low molecular weight heparin

For “Latent TGFβ Binding Protein-1, short form (LTBP1S), full length (natural protein)”, the stoichiometry N [1] was 4 to 5 and the stoichiometry N [2] was 4 to 5.

B1: LTBP1 N-terminal construct NT2 (residues 21–630) (domain or fragment, UniProt Q14766-2 21-630, looked up)
chain: NHTGRIKVVFTPSICKVTCTKGSCQNSCEKGNTTTLISENGHAADTLTATNFRVVICHLPCMNGGQCSSRDKCQCPPNFTGKLCQIPVHGASVPKLYQHSQQPGKALGTHVIHSTHTLPLTVTSQQGVKVKFPPNIVNIHVKHPPEASVQIHQVSRIDGPTGQKTKEAQPGQSQVSYQGLPVQKTQTIHSTYSHQQVIPHVYPVAAKTQLGRCFQETIGSQCGKALPGLSKQEDCCGTVGTSWGFNKCQKCPKKPSYHGYNQMMECLPGYKRVNNTFCQDINECQLQGVCPNGECLNTMGSYRCTCKIGFGPDPTFSSCVPDPPVISEEKGPCYRLVSSGRQCMHPLSVHLTKQLCCCSVGKAWGPHCEKCPLPGTAAFKEICPGGMGYTVSGVHRRRPIHHHVGKGPVFVKPKNTQPVAKSTHPPPLPAKEEPVEALTFSREHGPGVAEPEVATAPPEKEIPSLDQEKTKLEPGQPQLSPGISTIHLHPQFPVVIEKTSPPVPVEVAPEASTSSASQVIAPTQVTEINECTVNPDICGAGHCINLPVRYTCICYEGYRFSEQQRKCVDIDECTQVQHLCSQGRCENTEGSFLCICPAGFMASEEGTNCI
notes: LTBP1S residues 21-630; also called NT2 region
With B1 the “stoichiometry N” value [3] was 2.

B2: LTBP1 N-terminal construct NT1 (residues 21–488) (domain or fragment, UniProt Q14766-2 21-488, looked up)
chain: NHTGRIKVVFTPSICKVTCTKGSCQNSCEKGNTTTLISENGHAADTLTATNFRVVICHLPCMNGGQCSSRDKCQCPPNFTGKLCQIPVHGASVPKLYQHSQQPGKALGTHVIHSTHTLPLTVTSQQGVKVKFPPNIVNIHVKHPPEASVQIHQVSRIDGPTGQKTKEAQPGQSQVSYQGLPVQKTQTIHSTYSHQQVIPHVYPVAAKTQLGRCFQETIGSQCGKALPGLSKQEDCCGTVGTSWGFNKCQKCPKKPSYHGYNQMMECLPGYKRVNNTFCQDINECQLQGVCPNGECLNTMGSYRCTCKIGFGPDPTFSSCVPDPPVISEEKGPCYRLVSSGRQCMHPLSVHLTKQLCCCSVGKAWGPHCEKCPLPGTAAFKEICPGGMGYTVSGVHRRRPIHHHVGKGPVFVKPKNTQPVAKSTHPPPLPAKEEPVEALTFSREHGPGVAEPEVATAPPEKEIPSLDQE
notes: LTBP1S residues 21-488; also called NT1 region
B2 was tested, and the “stoichiometry N” value [4] was 2.

— article PMC5039643, “Independent multimerization of Latent TGFβ Binding Protein-1 stabilized by cross-linking and enhanced by heparan sulfate” (Scientific Reports, 2016)
